Measurements from paper PMC8391295, “Unraveling Human AQP5-PIP Molecular Interaction and Effect on AQP5 Salivary Glands Localization in SS Patients” (Cells, 2021).

Molecular target: T1, full-length His-tagged AQP5 (human, UniProt P55064 1-265)
T1 construct: aquaporin-5 (AQP5), human, full-length construct with His-tag; also called FL-AQP5; full-length AQP5; source: Pichia pastoris X-33, purified (solubilised in NG, Resource S, Superdex 200)
Assay: MST; labeled PIP at 42 nM, 1:1 dilution series of AQP5; 20 mM phosphate buffer pH 7.5, 100 mM NaCl, 0.8% NG; Hill equation fit on total monomeric AQP5 concentration; triplicates
Details: both partners purified

T1 sequence (P55064 whole entry): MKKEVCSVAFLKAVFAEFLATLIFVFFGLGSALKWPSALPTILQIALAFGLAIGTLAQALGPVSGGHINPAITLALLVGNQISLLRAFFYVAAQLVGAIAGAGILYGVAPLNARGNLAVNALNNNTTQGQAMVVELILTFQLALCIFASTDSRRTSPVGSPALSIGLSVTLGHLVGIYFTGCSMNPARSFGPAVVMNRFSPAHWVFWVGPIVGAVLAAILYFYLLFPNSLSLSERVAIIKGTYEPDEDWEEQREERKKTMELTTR

Kd: 570 nM
B1: mature C-terminal His-tag PIP (prolactin-inducible protein, residues 29-146) (natural protein, human, UniProt P12273 29-146, looked up)
chain: QDNTRKIIIKNFDIPKSVRPNDEVTAVLAVQTELKECMVVKTYLISSIPLQGAFNYKYTACLCDDNPKTFYWDFYTNRTVQIAAVVDVIRELGICPDDAAVIPIKNNRFYTIEILKVE
modifications: non homogeneously glycosylated; labeled with an amine-reactive dye (Monolith NT Protein RED-NHS Labeling Kit) in the MST experiments
notes: also called recombinant PIP; purified PIP; source: Pichia pastoris, secreted into the media, purified (HisTrap HP, Superdex 200); not shown: His6 (thrombin-cleavable), C-terminal, kept
